Results from patent CN115368446A (HEFEI TIANGANG IMMUNOLOGY PHARMACEUTICAL CO LTD, dated 2022).

Biological target: T1, CD79b蛋白 (on CHO-K1-CD79b细胞 / A375-CD79b细胞) (Homo sapiens (Human), UniProt P40259 29-229)
T1 sequence: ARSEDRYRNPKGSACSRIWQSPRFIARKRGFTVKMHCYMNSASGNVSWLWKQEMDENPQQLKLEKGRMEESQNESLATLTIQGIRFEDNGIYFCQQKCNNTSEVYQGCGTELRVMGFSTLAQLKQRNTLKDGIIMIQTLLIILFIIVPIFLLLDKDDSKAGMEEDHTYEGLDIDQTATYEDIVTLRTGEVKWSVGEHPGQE
Assay: flow cytometry on CHO-K1-CD79b cells, Alexa-647 anti-human Fc detection

B1: 抗体CD3×CD79b (bispecific antibody, human IgG1, kappa, L234A L235A)
scFv: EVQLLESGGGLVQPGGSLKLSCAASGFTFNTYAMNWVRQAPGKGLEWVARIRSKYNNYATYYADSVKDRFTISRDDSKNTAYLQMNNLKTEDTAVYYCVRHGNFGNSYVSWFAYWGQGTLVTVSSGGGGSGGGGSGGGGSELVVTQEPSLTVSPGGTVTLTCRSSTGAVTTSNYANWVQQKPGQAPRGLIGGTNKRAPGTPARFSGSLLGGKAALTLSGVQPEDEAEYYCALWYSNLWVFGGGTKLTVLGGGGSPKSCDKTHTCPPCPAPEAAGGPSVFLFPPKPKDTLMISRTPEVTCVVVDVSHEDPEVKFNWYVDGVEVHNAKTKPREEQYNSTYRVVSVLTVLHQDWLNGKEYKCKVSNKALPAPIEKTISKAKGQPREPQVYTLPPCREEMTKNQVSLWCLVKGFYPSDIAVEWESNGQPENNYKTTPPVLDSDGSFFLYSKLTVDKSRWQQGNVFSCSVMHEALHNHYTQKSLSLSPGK
heavy: EVQLVESGGGLVQPGGSLRLSCAASGYTFSSYWIEWVRQAPGKGLEWIGEILPGGGDTNYNEIFKGRATFSADTSKNTAYLQMNSLRAEDTAVYYCTRRVPIRLDYWGQGTLVTVSSASTKGPSVFPLAPSSKSTSGGTAALGCLVKDYFPEPVTVSWNSGALTSGVHTFPAVLQSSGLYSLSSVVTVPSSSLGTQTYICNVNHKPSNTKVDKKVEPKSCDKTHTCPPCPAPEAAGGPSVFLFPPKPKDTLMISRTPEVTCVVVDVSHEDPEVKFNWYVDGVEVHNAKTKPREEQYNSTYRVVSVLTVLHQDWLNGKEYKCKVSNKALPAPIEKTISKAKGQPREPQVCTLPPSREEMTKNQVSLSCAVKGFYPSDIAVEWESNGQPENNYKTTPPVLDSDGSFFLVSKLTVDKSRWQQGNVFSCSVMHEALHNHYTQKSLSLSPGK
light: DIQLTQSPSSLSASVGDRVTITCKASQSVDYEGDSFLNWYQQKPGKAPKLLIYAASNLESGVPSRFSGSGSGTDFTLTISSLQPEDFATYYCQQSNEDPLTFGQGTKVEIKRTVAAPSVFIFPPSDEQLKSGTASVVCLLNNFYPREAKVQWKVDNALQSGNSQESVTEQDSKDSTYSLSSTLTLSKADYEKHKVYACEVTHQGLSSPVTKSFNRGEC
notes: Three-chain knob-into-hole bispecific made in ExpiCHO cells and purified on Protein A; also called CD3×CD79b抗体; CD3×CD79b双特异抗体
  binding result: binds
